Patent US20160130322A1

Tests used:
[1] = target: unacylated ghrelin (UAG) (mouse) (UniProt Q9EQX0); experiment: cell-based or functional assay
[2] = target: acylated ghrelin (AG) (mouse) (UniProt Q9EQX0); experiment: cell-based or functional assay

levels of total ghrelin (primarily UAG) in circulation of mice expressing GHSR/Fc (plasma radioimmunoassay) [1]: 141 pg/mL | levels of AG in circulation of mice expressing GHSR/Fc (plasma enzyme-linked immunoassay) [2]: 1.41 pg/mL
Substance: GHSR/Fc (Nt-EC1-EC2 of mouse GHS-R1a fused with a mouse IgG constant region (Fc)) (Fc fusion)
